For the assay, the target named is Myosin-5a (Mus musculus, UniProt Q99104). Nature of the assay: ATPase activity assay.
Myosin-5a, sequence (Q99104 2-1853): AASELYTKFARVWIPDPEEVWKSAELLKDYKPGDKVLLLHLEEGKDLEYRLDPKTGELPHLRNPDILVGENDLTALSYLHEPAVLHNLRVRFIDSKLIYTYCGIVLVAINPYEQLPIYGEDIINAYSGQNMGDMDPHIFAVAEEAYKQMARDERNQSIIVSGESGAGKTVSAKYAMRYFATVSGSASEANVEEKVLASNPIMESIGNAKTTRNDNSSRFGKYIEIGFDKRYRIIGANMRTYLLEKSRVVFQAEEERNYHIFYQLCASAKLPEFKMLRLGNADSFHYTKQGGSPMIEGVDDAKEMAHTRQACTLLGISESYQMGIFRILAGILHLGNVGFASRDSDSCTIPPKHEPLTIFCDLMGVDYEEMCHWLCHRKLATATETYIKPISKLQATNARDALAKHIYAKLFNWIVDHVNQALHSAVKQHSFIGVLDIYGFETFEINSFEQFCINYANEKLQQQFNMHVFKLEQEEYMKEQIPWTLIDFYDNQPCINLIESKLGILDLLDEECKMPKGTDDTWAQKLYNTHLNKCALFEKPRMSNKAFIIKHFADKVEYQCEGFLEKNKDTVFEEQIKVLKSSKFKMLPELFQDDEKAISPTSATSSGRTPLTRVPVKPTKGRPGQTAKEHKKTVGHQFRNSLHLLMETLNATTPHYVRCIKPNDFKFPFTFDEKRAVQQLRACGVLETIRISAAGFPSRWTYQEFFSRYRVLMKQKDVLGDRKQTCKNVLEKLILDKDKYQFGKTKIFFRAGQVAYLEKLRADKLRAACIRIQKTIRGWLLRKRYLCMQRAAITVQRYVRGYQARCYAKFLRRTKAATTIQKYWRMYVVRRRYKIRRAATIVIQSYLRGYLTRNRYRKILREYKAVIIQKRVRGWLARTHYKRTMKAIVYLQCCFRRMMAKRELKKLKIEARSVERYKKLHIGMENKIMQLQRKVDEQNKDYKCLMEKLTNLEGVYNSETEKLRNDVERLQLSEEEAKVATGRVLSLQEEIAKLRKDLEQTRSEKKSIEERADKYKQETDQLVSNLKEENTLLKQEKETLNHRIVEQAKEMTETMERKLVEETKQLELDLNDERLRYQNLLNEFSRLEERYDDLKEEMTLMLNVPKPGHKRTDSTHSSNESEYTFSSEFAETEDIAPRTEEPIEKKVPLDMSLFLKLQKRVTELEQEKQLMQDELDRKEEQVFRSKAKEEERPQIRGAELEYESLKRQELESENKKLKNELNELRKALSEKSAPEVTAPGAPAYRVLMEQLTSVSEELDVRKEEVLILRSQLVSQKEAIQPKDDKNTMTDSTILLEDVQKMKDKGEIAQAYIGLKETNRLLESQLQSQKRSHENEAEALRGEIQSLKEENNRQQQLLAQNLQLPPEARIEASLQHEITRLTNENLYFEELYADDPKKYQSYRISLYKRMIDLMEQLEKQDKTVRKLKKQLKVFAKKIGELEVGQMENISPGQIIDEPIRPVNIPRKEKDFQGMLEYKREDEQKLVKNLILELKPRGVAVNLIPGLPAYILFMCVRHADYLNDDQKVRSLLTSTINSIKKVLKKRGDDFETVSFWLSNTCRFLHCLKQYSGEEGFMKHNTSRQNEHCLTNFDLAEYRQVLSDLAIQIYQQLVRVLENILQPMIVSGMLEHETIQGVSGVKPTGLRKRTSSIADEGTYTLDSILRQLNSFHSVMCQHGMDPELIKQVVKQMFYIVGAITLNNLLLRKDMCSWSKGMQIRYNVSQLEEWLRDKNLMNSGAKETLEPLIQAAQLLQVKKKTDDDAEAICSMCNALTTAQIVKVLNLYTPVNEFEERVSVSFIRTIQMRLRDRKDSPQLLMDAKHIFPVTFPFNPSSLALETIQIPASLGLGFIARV

In the case of RDQPLNSKKKKRLLSFRDVDFEEDSD [Melanophilin GTBDP], the affinity, expressed as Kd, was 19.8 µM.

As a reminder, the Kd is a measure of binding affinity in units of concentration.

The record behind these values is publication PMC4454200 (2015).
